This is an account of results in patent US20110200622A1 (SAMSUNG ELECTRONICS, published 2011).

The labels stand for the following.
B1: polypeptide clone number 66, displayed on phage (peptide, not shown: large carriers)
peptide: DRFSMWKNLE
notes: Tested as a phage clone in phage ELISA
B2: polypeptide clone number 13, displayed on phage (peptide, not shown: large carriers)
peptide: EDYRFYSVW
notes: as for B1
B3: polypeptide clone number 73, displayed on phage (peptide, not shown: large carriers)
peptide: ERTEMFPSAS
notes: as for B1
B4: polypeptide clone number 56, displayed on phage (peptide, not shown: large carriers)
peptide: MHRPWPWDMF
notes: as for B1
B5: polypeptide clone number 68, displayed on phage (peptide, not shown: large carriers)
peptide: PIGQRWNRLE
notes: as for B1
B6: polypeptide clone number 78, displayed on phage (peptide, not shown: large carriers)
peptide: PHQEMWQFES
notes: as for B1
B7: polypeptide clone number 76, displayed on phage (peptide, not shown: large carriers)
peptide: QRDEMYPHLN
notes: as for B1
B8: polypeptide clone number 69, displayed on phage (peptide, not shown: large carriers)
peptide: RLFEMYPSLE
notes: as for B1
B9: polypeptide clone number 34, displayed on phage (peptide, not shown: large carriers)
peptide: YGYPWSGT
notes: as for B1
B10: polypeptide clone number 42, displayed on phage (peptide, not shown: large carriers)
peptide: YRGVWGGYF
notes: as for B1
B11: polypeptide clone number 70, displayed on phage (peptide, not shown: large carriers)
peptide: SRFEMWNDIS
notes: as for B1
B12: polypeptide clone number 52, displayed on phage (peptide, not shown: large carriers)
peptide: DFLKMYRDEK
notes: as for B1
B13: polypeptide clone number 65, displayed on phage (peptide, not shown: large carriers)
peptide: QMDRMFPHVG
notes: as for B1
B14: polypeptide clone number 50, displayed on phage (peptide, not shown: large carriers)
peptide: QRDQQYKHMY
notes: as for B1
B15: polypeptide clone number 55, displayed on phage (peptide, not shown: large carriers)
peptide: PRFEMWHDDK
notes: as for B1
B16: polypeptide clone number 16, displayed on phage (peptide, not shown: large carriers)
peptide: DRYSQYQSPM
notes: as for B1
B17: polypeptide clone number 82, displayed on phage (peptide, not shown: large carriers)
peptide: MKSAMYHDIR
notes: as for B1
B18: polypeptide clone number 63, displayed on phage (peptide, not shown: large carriers)
peptide: PRLSMWQNME
notes: as for B1
B19: polypeptide clone number 83, displayed on phage (peptide, not shown: large carriers)
peptide: FDKYYRDWFI
notes: as for B1
B20: polypeptide clone number 40, displayed on phage (peptide, not shown: large carriers)
peptide: RMGPFGTTH
notes: as for B1
B21: polypeptide clone number 44, displayed on phage (peptide, not shown: large carriers)
peptide: HDYAFYSAW
notes: as for B1

The target of this test is T1, human VEGF (R&D systems, Inc.; catalog #293-VE) (human, UniProt P15692-4 27-191).
T1 construct: Bought protein; It was biotinylated for bead panning and coated directly on the plate for the ELISAs; also called human vascular endothelial growth factor; human-derived vascular endothelial growth factor
T1 sequence (P15692 other isoform, or with tags, fused parts or gaps limits assumed): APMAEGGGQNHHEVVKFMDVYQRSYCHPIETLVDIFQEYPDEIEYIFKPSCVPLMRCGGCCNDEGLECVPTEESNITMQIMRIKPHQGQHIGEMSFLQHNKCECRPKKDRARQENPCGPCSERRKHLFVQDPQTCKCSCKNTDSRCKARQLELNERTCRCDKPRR
Put plainly: phage ELISA on plate-immobilised human VEGF, anti-M13-HRP, OD450. As for the experimental part: E. coli XL1-Blue was infected with each of the phage clones obtained from the biopanning process, and the cells were cultured at 37° C. for 14 hours to obtain a phage solution. The VEGF was added to a 96-well microtiter plate (Nunc), and maintained at 4° C. for 18 hours to immobilize the VEGF on a surface of the plate. The plate with the immobilized VEGF was blocked with skim milk at room temperature for 1 hour, and 100 μl of the phage solution was added to the plate. Then, the phage and the VEGF were incubated together at room temperature for two hours, and washed using a PBS solution containing 0.1% Tween-20. Subsequently, an anti-M13 antibody (GE Healthcare) specifically reactive to the phage and conjugated with horseradish peroxidase (HRP) was added to the resultant product and incubated with each other at room temperature for 1 hour. Then, the plate was washed twice with a PBS solution containing 0.1% Tween-20. Lastly, 100 μl of trimethylbenzidine (TMB) (SIGMA), an HRP substrate, was added to each well of the plate to induce a color reaction. The reaction was stopped by adding 50 μl of 5N H₂SO₄ solution. The OD₄₅₀ value was read on a plate reader (Molecular Devices). […] To determine the base sequence of polynucleotides encoding the polypeptides specifically binding to the VEGF obtained from single clones of the phages, a colony polymerase chain reaction (PCR) was performed using two different primer sets (primer set SEQ ID NOS: 47 and 48; and primer set SEQ ID NOS: 49 and 50). Each primer set was used according to the origin of the Dyax polypeptide library. […] The PCR was performed using a GeneAmp PCR system 9700 (Applied Biosystem), with the following PCR conditions: 30 cycles of 94° C. for 5 minutes, 94° C. for 1 minute, 60° C. for 1 minute, and 72° C. for 1.5 minutes; 72° C. for 10 minutes; and cooling to 4° C. Subsequently, polynucleotide fragments obtained by the PCR reaction were washed and then sequenced (Solgent).
(In general: ELISA stands for enzyme-linked immunosorbent assay.)
With B1, the binding result is given as “binds”. For B2 the value was “binds”; for B3, “binds”; for B4, “binds”. Then B5, with “binds”; and B6, with “binds”; and B7, with “binds”. For B8 the value was “binds”. Take B9: the binding result is on record as “binds”. Then B10, with “binds”; and B11, with “binds”; and B12, with “binds”.

Turning to B13, the binding result was “binds”.

As for B14, the binding result is on record as “binds”. For B15 the value was “binds”; for B16, “binds”; for B17, “binds”. For B18 the value was “binds”; for B19, “binds”.

Take B20: the binding result is on record as “binds”.

Turning to B21, the binding result was “binds”.
